Assay results published in patent publication US20240358849A1 (SUZHOU FUSE BIOSCIENCES, published 2024).

Columns and labels:
[1] = target: Fc receptor CD64, Avi-tagged (UniProt P12314); assay: BLI, Avi-tagged receptor on streptavidin sensor; IgG complexed with TNFα
[2] = target: human FAP expressed on cells (HEK 293T-hFAP-E5; ExpiCHO-hFAP) (human) (UniProt Q12884); assay: cell-based or functional assay
[3] = target: T1, IL-2hex, mutant human IL-2 (deltaA1/T3A/F42A/Y45A/L72G/C125S) (human, UniProt P60568 22-153); assay: cell-based or functional assay
T1 chain: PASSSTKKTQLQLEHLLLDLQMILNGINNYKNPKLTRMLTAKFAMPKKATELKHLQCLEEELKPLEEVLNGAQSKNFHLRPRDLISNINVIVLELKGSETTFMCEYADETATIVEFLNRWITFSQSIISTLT

[4] = target: T2, human FAP expressed on cells (HEK 293T-hFAP-E5; ExpiCHO-hFAP) (human, UniProt Q12884 1-760); assay: cell-based or functional assay
[5] = target: T3, human Fibroblast Activation Protein (FAP), soluble antigen (human, UniProt Q12884 26-760, biotinylated when immobilized on streptavidin sensors); assay: BLI per 6.1.3
T3 construct: also called hFAP; biotinylated FAP

[6] = target: T1, IL-2hex, mutant human IL-2 …; assay: BLI per 6.1.3; column head IL-2 KD
[7] = target: T3, human Fibroblast Activation Protein …; assay: not stated (legend of FIG. 18B)
[8] = target: T1, IL-2hex, mutant human IL-2 …; assay: Affinity (nM), Table 13B
[9] = target: T3, human Fibroblast Activation Protein …; assay: Affinity (nM), Table 13B
[10] = target: T3, human Fibroblast Activation Protein …; assay: bio-layer interferometry; the legend paragraph 249 gives the pair as B10 and FAP; which of the two is loaded on the sensor is not told
[11] = target: T2, human FAP expressed on cells (HEK …); assay: flow cytometry, 1 µg/mL antibody
[12] = target: T3, human Fibroblast Activation Protein …; assay: BLI; Table 11, antibody variants (Fab/scFv)
[13] = target: T3, human Fibroblast Activation Protein …; assay: BLI (Gator), biotinylated FAP on streptavidin sensor
[14] = target: T3, human Fibroblast Activation Protein …; assay: BLI per 6.1.3, human FAP;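 note: biolayer interferometry with immobilized antigen on sensors, antibody association up to 240 s then dissociation up to 420 s, reference-subtracted, global 1:1 fit with unlinked Rmax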
[15] = target: T4, human interleukin-2 (IL-2), wild type (human, UniProt P60568 21-153, biotinylated when immobilized); assay: BLI; Table 11 (N.B. = no detectable binding)
T4 construct: also called biotinylated IL-2; IL2 WT

[16] = target: T3, human Fibroblast Activation Protein …; assay: not stated (legend of FIG. 13A)
[17] = target: T3, human Fibroblast Activation Protein …; assay: BLI; Table 11, single domain
[18] = target: T1, IL-2hex, mutant human IL-2 …; assay: not stated (legend of FIG. 7B)

T4 sequence (P60568 21-153): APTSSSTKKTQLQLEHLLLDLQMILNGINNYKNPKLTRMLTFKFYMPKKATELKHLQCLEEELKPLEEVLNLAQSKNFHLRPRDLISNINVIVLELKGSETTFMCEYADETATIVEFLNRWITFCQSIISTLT
Sequence of Fc receptor CD64, Avi-tagged (P12314 16-288 limits assumed): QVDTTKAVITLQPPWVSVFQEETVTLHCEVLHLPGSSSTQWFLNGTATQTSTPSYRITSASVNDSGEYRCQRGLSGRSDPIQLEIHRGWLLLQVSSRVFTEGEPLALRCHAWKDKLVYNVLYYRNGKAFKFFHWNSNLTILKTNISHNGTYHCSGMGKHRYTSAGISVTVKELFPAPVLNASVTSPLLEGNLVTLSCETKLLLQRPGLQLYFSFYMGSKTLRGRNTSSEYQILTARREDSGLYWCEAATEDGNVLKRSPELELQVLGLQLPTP

## Certolizumab IgG, wild-type IgG1 Fc (antibody)
[1]
  CD64 Binding (% of wild-type Certolizumab-IgG1): 100%

B1: immunoconjugate of configuration 3 with IL-2 polypeptide, D002 Fab and 872-70 scFv (Fc fusion, part only; not given: CH1, Fc subunits, linkers, part only)
chain, part: EVQLVESGGGLVQPGGSLRLSCAASGFTFSRYSMSWVRQAPGKGLEWVSYITSTDGTTDYADSVKGRFTISRDNSKNTLYLQMNSLRAEDTAVYYCARSQYGRYYSPDYYFDYWGQGTLVTVSSDIQMTQSPSSLSASVGDRVTITCRASQSISSYLNWYQQKPGKAPKLLIYAASSLQSGVPSRFSGSGSGTDFTLTISSLQPEDFATYYCQQSRTSPYTFGQGTKVEIKRTVAPASSSTKKTQLQLEHLLLDLQMILNGINNYKNPKLTRMLTAKFAMPKKATELKHLQCLEEELKPLEEVLNGAQSKNFHLRPRDLISNINVIVLELKGSETTFMCEYADETATIVEFLNRWITFSQSIISTLT
heavy, part: EVQLVESGGGLVQPGGSLRLSCAASGFTFSRYSMSWVRQAPGKGLEWVSDISSYSTTYYADSVKGRFTISRDNSKNTLYLQMNSLRAEDTAVYYCARSQYGRYYSPDYYFDYWGQGTLVTVSS
light, part: DIQMTQSPSSLSASVGDRVTITCRASQSIGNSLNWYQQKPGKAPKLLIYAASSLQSGVPSRFSGSGSGTDFTLTISSLQPEDFATYYCQQGRRSPFTFGQGTKVEIKRTVA
[2]
  enhancement of EC50, HEK-Blue IL-2 reporter, with FAP-expressing cells: < 200 fold

B2: immunoconjugate of configuration 3 with IL-2 polypeptide, D002 Fab and 872-5 scFv (Fc fusion, part only; not given: CH1, Fc subunits, linkers, part only)
chain, part: EVQLVESGGGLVQPGGSLRLSCAASGFTFRGYIMSWVRQAPGKGLEWVSWISPEGSRTGYADSVKGRFTISRDNSKNTLYLQMNSLRAEDTAVYYCARLQYGTWFDYWGQGTLVTVSSDIQMTQSPSSLSASVGDRVTITCRASQSISSYLNWYQQKPGKAPKLLIYAASSLQSGVPSRFSGSGSGTDFTLTISSLQPEDFATYYCQQATLLLPTFGQGTKVEIKRTVAPASSSTKKTQLQLEHLLLDLQMILNGINNYKNPKLTRMLTAKFAMPKKATELKHLQCLEEELKPLEEVLNGAQSKNFHLRPRDLISNINVIVLELKGSETTFMCEYADETATIVEFLNRWITFSQSIISTLT
heavy, part: EVQLVESGGGLVQPGGSLRLSCAASGFTFSRYSMSWVRQAPGKGLEWVSDISSYSTTYYADSVKGRFTISRDNSKNTLYLQMNSLRAEDTAVYYCARSQYGRYYSPDYYFDYWGQGTLVTVSS
light, part: DIQMTQSPSSLSASVGDRVTITCRASQSIGNSLNWYQQKPGKAPKLLIYAASSLQSGVPSRFSGSGSGTDFTLTISSLQPEDFATYYCQQGRRSPFTFGQGTKVEIKRTVA
[2]
  enhancement of EC50, HEK-Blue IL-2 reporter, with FAP-expressing cells: < 200 fold

B3: D029 HV2LV3 (bispecific antibody, V domains shown)
VH: EVQLVESGGGLVQPGGSLRLSCAASGFTFTWFFMSWVRQAPGKGLEWVSWIGPSGLYTDYADSVKGRFTISRDNSKNTLYLQMNSLRAEDTAVYYCARSQYGRYYSPDYYFDYWGQGTLVTVSS
VL: DIQMTQSPSSLSASVGDRVTITCRASGALGFYLNWYQQKPGKAPKLLIYAASSLSSGVPSRFSGSGSGTDFTLTISSLQPEDFATYYCQQGRTPPFTFGQGTKVEIKR
notes: also called Rev1-Q27G:L96F/S55L:S32F; two-in-one antibody within FB-675
[3]
  EC50 of HEK-Blue IL2 assay (pM) with HEK 293T; variant as masking moiety of a configuration 3 immunoconjugate: 5300 pM
[4]
  EC50 of HEK-Blue IL2 assay (pM) with HEK 293T-hFAP-E5; variant as masking moiety of a configuration 3 immunoconjugate: 31 pM
[5]
  Kd: 3.66 nM
[6]
  Kd: 217 nM
[7]
  Kd: ~3.66 nM
[8]
  Kd: 217 nM
[9]
  Kd: 3.7 nM

B4: two-in-one antibody B10 (bispecific antibody, V domains shown)
VH: EVQLVESGGGLVQPGGSLRLSCAASGFTFSRYSMGWVRQAPGKGLEWVSTIHSHGSGTRYADSVKGRFTISRDNSKNTLYLQMNSLRAEDTAVYYCARSQYGRYYSPDYYFDYWGQGTLVTVSS
VL: DIQMTQSPSSLSASVGDRVTITCRASQNIARYLNWYQQKPGKAPKLLIYAASSLQSGVPSRFSGSGSGTDFTLTISSLQPEDFATYYCQQGRYSPFTFGQGTKVEIKR
[10]
  binding result: binds
[11]
  binding result: binds

B5: anti-FAP antibody 872-5 (antibody, V domains shown)
VH: EVQLVESGGGLVQPGGSLRLSCAASGFTFRGYIMSWVRQAPGKGLEWVSWISPEGSRTGYADSVKGRFTISRDNSKNTLYLQMNSLRAEDTAVYYCARLQYGTWFDYWGQGTLVTVSS
VL: DIQMTQSPSSLSASVGDRVTITCRASQSISSYLNWYQQKPGKAPKLLIYAASSLQSGVPSRFSGSGSGTDFTLTISSLQPEDFATYYCQQATLLLPTFGQGTKVEIKR
notes: monovalent Fab-Fc (knob-in-hole) for KD per 6.1.3; also called IgG 5; FAP5
[12]
  Kd: 7 nM
[13]
  Kd: 6.6 nM
  koff: 0.0028 s⁻¹
  kon: 420000 M⁻¹ s⁻¹
[14]
  Kd: 7.3 nM
  koff: 0.00201 s⁻¹
  kon: 277000 M⁻¹ s⁻¹
[15]
  binding result: no binding

B6: scFv5, scFv derived from antibody 872-5 (scFv, V domains shown)
VH: EVQLVESGGGLVQPGGSLRLSCAASGFTFRGYIMSWVRQAPGKGLEWVSWISPEGSRTGYADSVKGRFTISRDNSKNTLYLQMNSLRAEDTAVYYCARLQYGTWFDYWGQGTLVTVSS
VL: DIQMTQSPSSLSASVGDRVTITCRASQSISSYLNWYQQKPGKAPKLLIYAASSLQSGVPSRFSGSGSGTDFTLTISSLQPEDFATYYCQQATLLLPTFGQGTKVEIKR
notes: Single chain; also called scFv872-5
[16]
  Kd: ~5 nM

B7: anti-FAP antibody 872-59 (antibody, V domains shown)
VH: EVQLVESGGGLVQPGGSLRLSCAASGFTFTSYAMSWVRQAPGKGLEWVSSIYSWYGTTSYADSVKGRFTISRDNSKNTLYLQMNSLRAEDTAVYYCARTISYSQYAYGYSFDYWGQGTLVTVSS
VL: DIQMTQSPSSLSASVGDRVTITCRASQSISSYLNWYQQKPGKAPKLLIYAASSLQSGVPSRFSGSGSGTDFTLTISSLQPEDFATYYCQQAFTSPRTFGQGTKVEIKR
notes: also called IgG 59; FAP59
[12]
  Kd: 16 nM
[13]
  Kd: 15.5 nM
  koff: 0.0056 s⁻¹
  kon: 360000 M⁻¹ s⁻¹
[15]
  binding result: no binding

B8: anti-FAP antibody 872-70 (antibody, V domains shown)
VH: EVQLVESGGGLVQPGGSLRLSCAASGFTFSRYSMSWVRQAPGKGLEWVSYITSTDGTTDYADSVKGRFTISRDNSKNTLYLQMNSLRAEDTAVYYCARSQYGRYYSPDYYFDYWGQGTLVTVSS
VL: DIQMTQSPSSLSASVGDRVTITCRASQSISSYLNWYQQKPGKAPKLLIYAASSLQSGVPSRFSGSGSGTDFTLTISSLQPEDFATYYCQQSRTSPYTFGQGTKVEIKR
notes: also called IgG 70; FAP70
[12]
  Kd: < 1 nM
[13]
  Kd: < 1 nM
  kon: 110000 M⁻¹ s⁻¹
[15]
  binding result: no binding

B9: single domain anti-FAP antibody VHH6 (VHH)
VHH: EVQLVESGGGLVQPGGSLRLSCAASGFTFTPTYMYWVRQAPGKGLEWVSAIDPYGRTEYPDSVKGRFTISRDNAKNTLYLQMNSLRPEDTAVYYCAVRVPPGVYTYYRTGPYDYWGQGTLVTVSS
[11]
  binding result: binds
[17]
  binding result: binds
[15]
  binding result: no binding

B10: two-in-one antibody D047 (bispecific antibody, V domains shown)
VH: EVQLVESGGGLVQPGGSLRLSCAASGFTFHYFSMSWVRQAPGKGLEWVSSISPTYGTTDYADSVKGRFTISRDNSKNTLYLQMNSLRAEDTAVYYCARLLYGTWFDYWGQGTLVTVSS
VL: DIQMTQSPSSLSASVGDRVTITCRASQGIKNYLNWYQQKPGKAPKLLIYAASSLQSGVPSRFSGSGSGTDFTLTISSLQPEDFATYYCQQGSYLQPTFGQGTKVEIKR
notes: Fab in FB-476
[18]
  Kd: ~20 nM
[11]
  binding result: binds

B11: scFv70, scFv derived from antibody 872-70 (scFv, V domains shown)
VH: EVQLVESGGGLVQPGGSLRLSCAASGFTFSRYSMSWVRQAPGKGLEWVSYITSTDGTTDYADSVKGRFTISRDNSKNTLYLQMNSLRAEDTAVYYCARSQYGRYYSPDYYFDYWGQGTLVTVSS
VL: DIQMTQSPSSLSASVGDRVTITCRASQSISSYLNWYQQKPGKAPKLLIYAASSLQSGVPSRFSGSGSGTDFTLTISSLQPEDFATYYCQQSRTSPYTFGQGTKVEIKR
notes: Single chain; also called scFv872-70
[16]
  Kd: ~1 nM
